Common to all, as to assay: cell_activity
Data set [1] concerns TALEN 101540 (engineered). The settings on record: pair with 101536, K562; 9.6 with 101537.
Data set [2] relates to TALEN 101537 (engineered). The settings on record: pair with 101541, K562; 9.6 with 101540, 0.0 with 101539.
Data set [3] concerns TALEN 101511 (engineered). The settings on record: pair with 101515, K562; 3.4 with 101514, 5.3 with 101516.
Data set [4] deals with TALEN 101514 (engineered). The following applies: pair with 101513, K562.
Data set [5] relates to TALEN 101539 (engineered). The following applies: pair with 101536, K562; 0.0 with 101537.
Data set [6] relates to ZFN 16787 (TRBC) (engineered). The settings on record: pair with 16783, K562 day 3; 15.6 day 10; Table 6 8.73 TRBC1, 8.68 TRBC2.
The subject of data set [7] is ZFN 22409 (TRBC) (engineered). The settings on record: pair with 16783, K562 day 10.
Data set [8] relates to ZFN 22449 (TRBC) (engineered). The settings on record: pair with 16783, K562 day 3; 8.1 day 10.
Data set [9] relates to ZFN 22454 (TRBC) (engineered). The following applies: pair with 16783, K562 day 3; 12.1 day 10.
The test system of data set [10] is TALEN 101513 (engineered). The settings on record: pair with 101516, K562; 5.9 with 101514, 8.3 with 101515.
Data set [11] deals with TALEN 101512 (engineered). The following applies: pair with 101516, K562; 5.3 with 101514, 8.9 with 101515.
Data set [12] has as its system TALEN 101515 (engineered). The following applies: pair with 101512, K562.
For data set [13], the system named is TALEN 101536 (engineered). The settings on record: pair with 101541, K562; 8.5 with 101539, 9.9 with 101540.
The subject of data set [14] is TALEN 101516 (engineered). The following applies: pair with 101513, K562.

For “CTGGGTCCACTCGTCATTC (double strand) [101540 site]”, the activity in data set [1] was 9.9 % NHEJ.

In turn, “CTGTCAAGTCCAGTTCTA (double strand) [101537 site]” yielded an activity in [2] of 9.9 % NHEJ.

In the case of “GTGCTGTGGCCTGGAGCAA (double strand) [101511 site]”, the activity in data set [3] was determined as 5.9 % NHEJ.

Turning to “TTGAAGGCGTTTGCACATGCA (double strand) [101514 site]”, in data set [4], the activity came out at 5.9 % NHEJ.

As for “CTGGGTCCACTCGTCATTCT (double strand) [101539 site]”, the activity in data set [5] turned out to be 8.5 % NHEJ.

“TCTCGGAGAATGACGAGTGGACCCAGGA (double strand) [TRBC 16787 site]”: the activity in data set [6] was 12.1 % NHEJ; in data set [7], 14.7 % NHEJ; in data set [8], 20.1 % NHEJ; in data set [9] it was 17.7 % NHEJ.

In turn, “CTGTGGCCTGGAGCAACAA (double strand) [101513 site]” displayed an activity in data set [10] of 16.4 % NHEJ.

For the sequence “GTGCTGTGGCCTGGAGCAAC (double strand) [101512 site]”, the activity in [11] came out at 12 % NHEJ.

In the case of “GTTGAAGGCGTTTGCACATGC (double strand) [101515 site]”, in data set [12], the activity came to 8.9 % NHEJ.

In the case of “TTCCGCTGTCAAGTCCAGTTC (double strand) [101536 site]”, the activity in data set [13] was 15 % NHEJ.

On to “GTTGAAGGCGTTTGCACATG (double strand) [101516 site]”, for which the activity in data set [14] amounted to 16.4 % NHEJ.

Values taken from US20140301990A1.
